Laboratory results as given in PMC9328677 (2021).

B1: acidic domain of Homo sapiens APLF (APLF^AD, residues 450 to 511), wild type [Homo sapiens] / stoichiometric mixture of full-length Drosophila melanogaster H2A-H2B and H3-H4 (octamer-mix) [Drosophila melanogaster] (parent complex)
chain 1: DEDNDNVGQPNEYDLNDSFLDDEEEDYEPTDEDSDWEPGKEDEEKEDVEELLKEAKRFMKRK
chain 2: not shown
chain 3: not shown
chain 4: not shown
chain 5: not shown

Variants of: B1
Experiment: ITC

Variant	Kd [nM]
chain 1 Y13A, chain 1 F19A	671
chain 1 Y27A, chain 1 W36A	317
chain 1 Y13A, chain 1 F19A, chain 1 Y27A, chain 1 W36A	794
